Measured values taken from patent publication US20170145391.

How the values were obtained:
[1] = molecular target: 4E-BP1 (Calbiochem) (UniProt Q13541)
[2] = molecular target: His-S6K1C (UniProt P23443)
His-S6K1C, sequence (P23443 332-502): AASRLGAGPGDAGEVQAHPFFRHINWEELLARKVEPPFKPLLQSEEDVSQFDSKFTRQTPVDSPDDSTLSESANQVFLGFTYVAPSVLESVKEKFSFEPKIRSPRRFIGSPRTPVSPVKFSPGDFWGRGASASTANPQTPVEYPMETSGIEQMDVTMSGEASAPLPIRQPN

4E-BP1 (Calbiochem), sequence (Q13541 whole entry): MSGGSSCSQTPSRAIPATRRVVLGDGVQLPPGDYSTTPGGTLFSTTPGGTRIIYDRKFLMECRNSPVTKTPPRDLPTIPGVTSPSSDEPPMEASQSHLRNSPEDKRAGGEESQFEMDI

Substance: FLAG-mTORα
- mTOR in vitro kinase assay; immunoblot with phosphospecific antibody pS65-4E-BP1 [1]: mTORβ can phosphorylate both S6K1 and 4E-BP1 in vitro, but to a lesser extent than mTORα
- mTOR in vitro kinase assay; immunoblot with phosphospecific antibody pT389-S6K1 [2]: mTORβ can phosphorylate both S6K1 and 4E-BP1 in vitro, but to a lesser extent than mTORα
